From PMC9609667, “Serendipitous Discovery of a Competitive Inhibitor of FraB, a Salmonella Deglycase and Drug Target” (Pathogens, 2022) come the findings set out here.

For assay [1], the target named is FraB, a Salmonella deglycase (Salmonella). Briefly: native MS; 3 uM FraB or FrlB mixed with 150, 300 or 450 uM 2-deoxy-6-P-GA; 200 mM ammonium acetate (pH adjusted to 7.4 for FraB); mixed at 25 °C, incubated 30 min at room temperature; nano-ESI, Q Exactive UHMR Orbitrap.
The next assay deals with T1, FrlB (Salmonella enterica, UniProt Q8ZJX7).
T1 construct: gene STM4540; recombinant FrlB, His6 tag removed
T1 sequence (Q8ZJX7 1-343): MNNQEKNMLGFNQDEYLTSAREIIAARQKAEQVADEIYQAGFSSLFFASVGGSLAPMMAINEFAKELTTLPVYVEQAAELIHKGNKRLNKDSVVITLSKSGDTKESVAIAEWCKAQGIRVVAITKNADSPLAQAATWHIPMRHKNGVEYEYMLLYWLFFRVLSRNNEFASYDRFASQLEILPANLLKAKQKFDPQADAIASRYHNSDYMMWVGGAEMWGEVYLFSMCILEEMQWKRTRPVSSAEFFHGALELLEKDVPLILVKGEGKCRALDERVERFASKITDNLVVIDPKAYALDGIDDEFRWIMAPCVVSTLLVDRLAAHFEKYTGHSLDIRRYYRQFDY
Briefly: native mass spectrometry (dimer with one or two ligands); about […] inhibition at […] in coupled assay. The class given is binding.

A further assay has as its target T2, FraB (Salmonella enterica, UniProt Q8ZLD0).
T2 construct: gene STM3601; 325-aa construct, N-terminal His6-tag
Put plainly: G6PDH-coupled deglycase assay, Michaelis-Menten analysis; binding confirmed by native MS. In kind it is biochemical.

In assay [2] the target is FrlB deglycase (Salmonella) (Salmonella). Briefly: native MS; 3 uM FraB or FrlB mixed with 150, 300 or 450 uM 2-deoxy-6-P-GA; 200 mM ammonium acetate (pH adjusted to 7.4 for FraB); mixed at 25 °C, incubated 30 min at room temperature; nano-ESI, Q Exactive UHMR Orbitrap.

The term stoichiometry N denotes the number of molecules, sites or subunits per partner or assembly. FraB, a Salmonella deglycase (enzyme) gave a stoichiometry N in assay [1] of 2.

Broadly, the Ki is the dissociation constant of the complex between target and ligand, obtained from inhibition or displacement. `O=C(O)C[C@@H](O)[C@H](O)[C@H](O)COP(=O)(O)O` [2-deoxy-6-P-GA, 2-deoxy-6-phosphogluconate]: the “native mass spectrometry (dimer with one or two ligands); about 50% inhibition a” value on FrlB is “These results confirm the direct interaction of 2-deoxy-6-P-GA to FraB and FrlB”. On FraB, this molecule displayed a Ki of 3.3 µM.

In assay [2], FrlB deglycase (Salmonella) (enzyme) gave a stoichiometry N of 2.
